{"source": "patent US20170190753A1", "about": "(LABORATOIRE FRANCAIS DU FRACTIONNEMENT ET DES …, published 2017)", "binders": {"B1": {"name": "pCEP4-1NT9-12CT20 (other)", "chain": "EDCNELPPRRNTEILTGSWSDQTYPEGTQAIYKCRPGYRSLGNVIMVCRKGEWVALNPLRKCQKRPCGHPGDTPFGTFTLTGGNVFEYGVKAVYTCNEGYQLLGEINYRECDTDGWTNDIPICEVVKCLPVTAPENGKIVSSAMEPDREYHFGQAVRFVCNSGYKIEGDEEMHCSDDGFWSKEKPKCVEISCKSPDVINGSPISQKIIYKENERFQYKCNMGYEYSERGDAVCTESGWRPLPSCEEKSCDNPYIPNGDYSPLRIKHRTGDEITYQCRNGFYPATRGNTAKCTSTGWIPAPRCTLKPCDYPDIKHGGLYHENMRRPYFPVAVGKYYSYYCDEHFETPSGSYWDHIHCTQDGWSPAVPCLRKCYFPYLENGYNQNHGRKFVQGKSIDVACHPGYALPKAQTTVTCMENGWSPTPRCIRVKTCSKSSIDIENGFISESQYTYALKEKAKYQCKLGYVTADGETSGSITCGKDGWSAQPTCIKSCDIPVFMNARTKNDFTWFKLNDTLDYECHDGYESNTGSTTGSIVCGYNGWSDLPICYEREGASGCGDIPELEHGWAQLSSPPYYYGDSVEFNCSESFTMIGHRSITCIHGVWTQLPQCVAIDKLKKCKSSNLIILEEHLKNKKEFDHNSNIRYRCRGKEGWIHTVCINGRWDPEVNCSMAQIQLCPPPPQIPNSHNMTTTLNYRDGEKVSVLCQENYLIQEGEEITCKDGRWQSIPLCVEKIPCSQPPQIEHGTINSSRSSQESYAHGTKLSYTCEGGFRISEENETTCYMGKWSSPPQCEGLPCKSPPEISHGVVAHMSDSYQYGEEVTYKCFEGFGIDGPAIAKCLGEKWSHPPSCIKTDCLSLPSFENAIPMGEKKDVYKAGEQVTYTCATYYKMDGASNVTCINSRWTGRPTCRDTSCVNPPTVQNAYIVSRQMSKYPSGERVRYQCRSPYEMFGDEEVMCLNGNWTEPPQCKDSTGKCGPPPPIDNGDITSFPLSVYAPASSVEYQCQNLYQLEGNKRITCRNGQWSEPPKCLHPCVISREIMENYNIALRWTAKQKLYSRTGESVEFVCKRGYRLSSRSHTLRTTCWDGKLEYPTCAKRGGSGHHHHHH"}, "B2": {"name": "pCEP4-1NT8-9CT20 (other)", "chain": "EDCNELPPRRNTEILTGSWSDQTYPEGTQAIYKCRPGYRSLGNVIMVCRKGEWVALNPLRKCQKRPCGHPGDTPFGTFTLTGGNVFEYGVKAVYTCNEGYQLLGEINYRECDTDGWTNDIPICEVVKCLPVTAPENGKIVSSAMEPDREYHFGQAVRFVCNSGYKIEGDEEMHCSDDGFWSKEKPKCVEISCKSPDVINGSPISQKIIYKENERFQYKCNMGYEYSERGDAVCTESGWRPLPSCEEKSCDNPYIPNGDYSPLRIKHRTGDEITYQCRNGFYPATRGNTAKCTSTGWIPAPRCTLKPCDYPDIKHGGLYHENMRRPYFPVAVGKYYSYYCDEHFETPSGSYWDHIHCTQDGWSPAVPCLRKCYFPYLENGYNQNYGRKFVQGKSIDVACHPGYALPKAQTTVTCMENGWSPTPRCIRVKTCSKSSIDIENGFISESQYTYALKEKAKYQCKLGYVTADGETSGSITCGKDGWSAQPTCIKSGASGCDIPVFMNARTKNDFTWFKLNDTLDYECHDGYESNTGSTTGSIVCGYNGWSDLPICYERECELPKIDVHLVPDRKKDQYKVGEVLKFSCKPGFTIVGPNSVQCYHFGLSPDLPICKEQVQSCGPPPELLNGNVKEKTKEEYGHSEVVEYYCNPRFLMKGPNKIQCVDGEWTTLPVCIVEESTCGDIPELEHGWAQLSSPPYYYGDSVEFNCSESFTMIGHRSITCIHGVWTQLPQCVAIDKLKKCKSSNLIILEEHLKNKKEFDHNSNIRYRCRGKEGWIHTVCINGRWDPEVNCSMAQIQLCPPPPQIPNSHNMTTTLNYRDGEKVSVLCQENYLIQEGEEITCKDGRWQSIPLCVEKIPCSQPPQIEHGTINSSRSSQESYAHGTKLSYTCEGGFRISEENETTCYMGKWSSPPQCEGLPCKSPPEISHGVVAHMSDSYQYGEEVTYKCFEGFGIDGPAIAKCLGEKWSHPPSCIKTDCLSLPSFENAIPMGEKKDVYKAGEQVTYTCATYYKMDGASNVTCINSRWTGRPTCRDTSCVNPPTVQNAYIVSRQMSKYPSGERVRYQCRSPYEMFGDEEVMCLNGNWTEPPQCKDSTGKCGPPPPIDNGDITSFPLSVYAPASSVEYQCQNLYQLEGNKRITCRNGQWSEPPKCLHPCVISREIMENYNIALRWTAKQKLYSRTGESVEFVCKRGYRLSSRSHTLRTTCWDGKLEYPTCAKRGGSGHHHHHH"}, "B3": {"name": "pCEP4-1NT7-11CT20 (other)", "chain": "EDCNELPPRRNTEILTGSWSDQTYPEGTQAIYKCRPGYRSLGNVIMVCRKGEWVALNPLRKCQKRPCGHPGDTPFGTFTLTGGNVFEYGVKAVYTCNEGYQLLGEINYRECDTDGWTNDIPICEVVKCLPVTAPENGKIVSSAMEPDREYHFGQAVRFVCNSGYKIEGDEEMHCSDDGFWSKEKPKCVEISCKSPDVINGSPISQKIIYKENERFQYKCNMGYEYSERGDAVCTESGWRPLPSCEEKSCDNPYIPNGDYSPLRIKHRTGDEITYQCRNGFYPATRGNTAKCTSTGWIPAPRCTLKPCDYPDIKHGGLYHENMRRPYFPVAVGKYYSYYCDEHFETPSGSYWDHIHCTQDGWSPAVPCLRKCYFPYLENGYNQNYGRKFVQGKSIDVACHPGYALPKAQTTVTCMENGWSPTPRCIRVKTGASGCGPPPELLNGNVKEKTKEEYGHSEVVEYYCNPRFLMKGPNKIQCVDGEWTTLPVCIVEESTCGDIPELEHGWAQLSSPPYYYGDSVEFNCSESFTMIGHRSITCIHGVWTQLPQCVAIDKLKKCKSSNLIILEEHLKNKKEFDHNSNIRYRCRGKEGWIHTVCINGRWDPEVNCSMAQIQLCPPPPQIPNSHNMTTTLNYRDGEKVSVLCQENYLIQEGEEITCKDGRWQSIPLCVEKIPCSQPPQIEHGTINSSRSSQESYAHGTKLSYTCEGGFRISEENETTCYMGKWSSPPQCEGLPCKSPPEISHGVVAHMSDSYQYGEEVTYKCFEGFGIDGPAIAKCLGEKWSHPPSCIKTDCLSLPSFENAIPMGEKKDVYKAGEQVTYTCATYYKMDGASNVTCINSRWTGRPTCRDTSCVNPPTVQNAYIVSRQMSKYPSGERVRYQCRSPYEMFGDEEVMCLNGNWTEPPQCKDSTGKCGPPPPIDNGDITSFPLSVYAPASSVEYQCQNLYQLEGNKRITCRNGQWSEPPKCLHPCVISREIMENYNIALRWTAKQKLYSRTGESVEFVCKRGYRLSSRSHTLRTTCWDGKLEYPTCAKRGGSGHHHHHH"}, "B4": {"name": "pCEP4-1NT8-16CT20 (other)", "chain": "EDCNELPPRRNTEILTGSWSDQTYPEGTQAIYKCRPGYRSLGNVIMVCRKGEWVALNPLRKCQKRPCGHPGDTPFGTFTLTGGNVFEYGVKAVYTCNEGYQLLGEINYRECDTDGWTNDIPICEVVKCLPVTAPENGKIVSSAMEPDREYHFGQAVRFVCNSGYKIEGDEEMHCSDDGFWSKEKPKCVEISCKSPDVINGSPISQKIIYKENERFQYKCNMGYEYSERGDAVCTESGWRPLPSCEEKSCDNPYIPNGDYSPLRIKHRTGDEITYQCRNGFYPATRGNTAKCTSTGWIPAPRCTLKPCDYPDIKHGGLYHENMRRPYFPVAVGKYYSYYCDEHFETPSGSYWDHIHCTQDGWSPAVPCLRKCYFPYLENGYNQNYGRKFVQGKSIDVACHPGYALPKAQTTVTCMENGWSPTPRCIRVKTCSKSSIDIENGFISESQYTYALKEKAKYQCKLGYVTADGETSGSITCGKDGWSAQPTCIKSGASGCKSPPEISHGVVAHMSDSYQYGEEVTYKCFEGFGIDGPAIAKCLGEKWSHPPSCIKTDCLSLPSFENAIPMGEKKDVYKAGEQVTYTCATYYKMDGASNVTCINSRWTGRPTCRDTSCVNPPTVQNAYIVSRQMSKYPSGERVRYQCRSPYEMFGDEEVMCLNGNWTEPPQCKDSTGKCGPPPPIDNGDITSFPLSVYAPASSVEYQCQNLYQLEGNKRITCRNGQWSEPPKCLHPCVISREIMENYNIALRWTAKQKLYSRTGESVEFVCKRGYRLSSRSHTLRTTCWDGKLEYPTCAKRGGSGHHHHHH"}, "B5": {"name": "pCEP4-1NT8-13CT20 (other)", "chain": "EDCNELPPRRNTEILTGSWSDQTYPEGTQAIYKCRPGYRSLGNVIMVCRKGEWVALNPLRKCQKRPCGHPGDTPFGTFTLTGGNVFEYGVKAVYTCNEGYQLLGEINYRECDTDGWTNDIPICEVVKCLPVTAPENGKIVSSAMEPDREYHFGQAVRFVCNSGYKIEGDEEMHCSDDGFWSKEKPKCVEISCKSPDVINGSPISQKIIYKENERFQYKCNMGYEYSERGDAVCTESGWRPLPSCEEKSCDNPYIPNGDYSPLRIKHRTGDEITYQCRNGFYPATRGNTAKCTSTGWIPAPRCTLKPCDYPDIKHGGLYHENMRRPYFPVAVGKYYSYYCDEHFETPSGSYWDHIHCTQDGWSPAVPCLRKCYFPYLENGYNQNHGRKFVQGKSIDVACHPGYALPKAQTTVTCMENGWSPTPRCIRVKTCSKSSIDIENGFISESQYTYALKEKAKYQCKLGYVTADGETSGSITCGKDGWSAQPTCIKSGASGCKSSNLIILEEHLKNKKEFDHNSNIRYRCRGKEGWIHTVCINGRWDPEVNCSMAQIQLCPPPPQIPNSHNMTTTLNYRDGEKVSVLCQENYLIQEGEEITCKDGRWQSIPLCVEKIPCSQPPQIEHGTINSSRSSQESYAHGTKLSYTCEGGFRISEENETTCYMGKWSSPPQCEGLPCKSPPEISHGVVAHMSDSYQYGEEVTYKCFEGFGIDGPAIAKCLGEKWSHPPSCIKTDCLSLPSFENAIPMGEKKDVYKAGEQVTYTCATYYKMDGASNVTCINSRWTGRPTCRDTSCVNPPTVQNAYIVSRQMSKYPSGERVRYQCRSPYEMFGDEEVMCLNGNWTEPPQCKDSTGKCGPPPPIDNGDITSFPLSVYAPASSVEYQCQNLYQLEGNKRITCRNGQWSEPPKCLHPCVISREIMENYNIALRWTAKQKLYSRTGESVEFVCKRGYRLSSRSHTLRTTCWDGKLEYPTCAKRGGSGHHHHHH"}, "B6": {"name": "pCEP4-1NT9-16CT20 (other)", "chain": "EDCNELPPRRNTEILTGSWSDQTYPEGTQAIYKCRPGYRSLGNVIMVCRKGEWVALNPLRKCQKRPCGHPGDTPFGTFTLTGGNVFEYGVKAVYTCNEGYQLLGEINYRECDTDGWTNDIPICEVVKCLPVTAPENGKIVSSAMEPDREYHFGQAVRFVCNSGYKIEGDEEMHCSDDGFWSKEKPKCVEISCKSPDVINGSPISQKIIYKENERFQYKCNMGYEYSERGDAVCTESGWRPLPSCEEKSCDNPYIPNGDYSPLRIKHRTGDEITYQCRNGFYPATRGNTAKCTSTGWIPAPRCTLKPCDYPDIKHGGLYHENMRRPYFPVAVGKYYSYYCDEHFETPSGSYWDHIHCTQDGWSPAVPCLRKCYFPYLENGYNQNYGRKFVQGKSIDVACHPGYALPKAQTTVTCMENGWSPTPRCIRVKTCSKSSIDIENGFISESQYTYALKEKAKYQCKLGYVTADGETSGSITCGKDGWSAQPTCIKSCDIPVFMNARTKNDFTWFKLNDTLDYECHDGYESNTGSTTGSIVCGYNGWSDLPICYEREGASGCKSPPEISHGVVAHMSDSYQYGEEVTYKCFEGFGIDGPAIAKCLGEKWSHPPSCIKTDCLSLPSFENAIPMGEKKDVYKAGEQVTYTCATYYKMDGASNVTCINSRWTGRPTCRDTSCVNPPTVQNAYIVSRQMSKYPSGERVRYQCRSPYEMFGDEEVMCLNGNWTEPPQCKDSTGKCGPPPPIDNGDITSFPLSVYAPASSVEYQCQNLYQLEGNKRITCRNGQWSEPPKCLHPCVISREIMENYNIALRWTAKQKLYSRTGESVEFVCKRGYRLSSRSHTLRTTCWDGKLEYPTCAKRGGSGHHHHHH"}}, "data": [{"target": "C3 convertase complex (UniProt P01024 23-1663; P00751 260-764)", "sequence (P01024 23-1663, chain 1 of 2)": "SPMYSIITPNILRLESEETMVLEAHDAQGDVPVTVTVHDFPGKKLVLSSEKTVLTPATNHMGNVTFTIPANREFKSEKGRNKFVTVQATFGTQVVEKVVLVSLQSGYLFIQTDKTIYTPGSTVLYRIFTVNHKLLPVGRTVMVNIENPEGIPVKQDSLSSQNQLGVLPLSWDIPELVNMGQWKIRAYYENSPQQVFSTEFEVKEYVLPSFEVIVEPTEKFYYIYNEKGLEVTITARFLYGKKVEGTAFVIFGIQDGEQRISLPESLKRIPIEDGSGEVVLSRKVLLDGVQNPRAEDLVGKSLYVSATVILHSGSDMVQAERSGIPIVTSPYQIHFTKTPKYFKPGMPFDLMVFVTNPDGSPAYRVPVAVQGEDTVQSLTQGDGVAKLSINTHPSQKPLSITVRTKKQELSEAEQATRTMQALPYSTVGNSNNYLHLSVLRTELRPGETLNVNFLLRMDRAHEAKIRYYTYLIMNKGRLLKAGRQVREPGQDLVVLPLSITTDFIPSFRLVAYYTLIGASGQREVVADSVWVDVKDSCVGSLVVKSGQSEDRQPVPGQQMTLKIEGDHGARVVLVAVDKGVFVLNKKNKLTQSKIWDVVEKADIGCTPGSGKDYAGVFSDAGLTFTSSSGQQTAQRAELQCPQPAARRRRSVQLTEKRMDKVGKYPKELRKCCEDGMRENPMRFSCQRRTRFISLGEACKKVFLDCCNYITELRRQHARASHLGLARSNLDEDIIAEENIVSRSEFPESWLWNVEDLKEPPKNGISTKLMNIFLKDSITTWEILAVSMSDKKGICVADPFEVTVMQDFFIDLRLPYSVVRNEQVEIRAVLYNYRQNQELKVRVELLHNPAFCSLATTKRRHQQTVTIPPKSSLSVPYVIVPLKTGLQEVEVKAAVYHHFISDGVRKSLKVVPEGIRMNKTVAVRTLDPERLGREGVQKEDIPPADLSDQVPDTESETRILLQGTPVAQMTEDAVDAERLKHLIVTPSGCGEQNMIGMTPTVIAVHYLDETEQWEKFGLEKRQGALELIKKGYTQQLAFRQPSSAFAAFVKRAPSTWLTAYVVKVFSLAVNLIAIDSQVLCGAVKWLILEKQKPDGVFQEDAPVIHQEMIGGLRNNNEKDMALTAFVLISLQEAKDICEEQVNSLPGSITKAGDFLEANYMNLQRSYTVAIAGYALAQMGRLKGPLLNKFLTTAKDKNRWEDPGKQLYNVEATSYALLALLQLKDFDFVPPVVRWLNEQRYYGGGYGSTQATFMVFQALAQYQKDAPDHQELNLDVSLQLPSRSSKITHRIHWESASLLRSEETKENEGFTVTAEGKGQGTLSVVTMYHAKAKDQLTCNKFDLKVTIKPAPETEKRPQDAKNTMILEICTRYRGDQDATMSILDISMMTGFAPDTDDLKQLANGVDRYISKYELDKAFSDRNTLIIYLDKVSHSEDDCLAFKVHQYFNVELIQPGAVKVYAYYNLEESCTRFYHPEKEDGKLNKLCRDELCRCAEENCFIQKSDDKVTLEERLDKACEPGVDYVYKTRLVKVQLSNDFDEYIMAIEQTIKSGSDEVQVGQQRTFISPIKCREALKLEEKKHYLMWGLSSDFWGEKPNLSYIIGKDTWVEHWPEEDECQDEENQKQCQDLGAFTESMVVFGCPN", "sequence (P00751 260-764, chain 2 of 2)": "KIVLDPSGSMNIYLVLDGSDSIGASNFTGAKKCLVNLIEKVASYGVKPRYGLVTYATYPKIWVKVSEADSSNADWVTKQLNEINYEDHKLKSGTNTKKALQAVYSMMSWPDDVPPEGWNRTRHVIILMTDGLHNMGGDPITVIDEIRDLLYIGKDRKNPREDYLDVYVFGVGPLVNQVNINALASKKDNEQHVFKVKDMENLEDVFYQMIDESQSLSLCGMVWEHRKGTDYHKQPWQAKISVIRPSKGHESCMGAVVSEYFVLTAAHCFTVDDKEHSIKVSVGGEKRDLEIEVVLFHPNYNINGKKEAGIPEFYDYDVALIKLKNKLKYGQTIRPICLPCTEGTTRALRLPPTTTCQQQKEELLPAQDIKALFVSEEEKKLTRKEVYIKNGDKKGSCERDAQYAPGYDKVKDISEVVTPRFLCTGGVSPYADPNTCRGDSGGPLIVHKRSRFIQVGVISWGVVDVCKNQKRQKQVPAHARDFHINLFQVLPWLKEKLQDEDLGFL", "assay": "cell-based or functional assay", "units": {"C3 convertase activity IC50": "mg/L"}, "values": [{"binder": "B1", "C3 convertase activity % of the control": "30 % of the control", "C3 convertase activity IC50": 0.307}, {"binder": "B2", "C3 convertase activity % of the control": "27 % of the control", "C3 convertase activity IC50": 0.489}, {"binder": "B3", "C3 convertase activity % of the control": "134 % of the control", "C3 convertase activity IC50": 0.265}, {"binder": "B4", "C3 convertase activity % of the control": "25 % of the control", "C3 convertase activity IC50": 0.426}, {"binder": "B5", "C3 convertase activity % of the control": "30 % of the control", "C3 convertase activity IC50": 0.402}, {"binder": "B6", "C3 convertase activity % of the control": "25 % of the control", "C3 convertase activity IC50": 0.418}]}]}
